Laboratory results reported in patent US20190352387A1 (Chugai, published 2019).

Legend:
[1] = biological target: T1, Recombinant mouse sclerostin (mouse, UniProt Q99P68 24-211); experiment: cell-based or functional assay
T1 sequence: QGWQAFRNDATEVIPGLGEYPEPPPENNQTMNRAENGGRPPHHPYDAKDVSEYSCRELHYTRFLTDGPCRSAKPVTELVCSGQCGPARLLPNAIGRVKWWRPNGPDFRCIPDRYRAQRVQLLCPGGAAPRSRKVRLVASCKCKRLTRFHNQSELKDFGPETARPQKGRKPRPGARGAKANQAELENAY

Mouse Fc gamma RIIB = biological target: T2, Mouse Fc gamma RIIB (mouse, UniProt P08101 30-210, limits assumed); experiment: SPR (Biacore T200), pH 7.4, 25 degrees C; mouse Fc gamma RIIB captured by anti-Histidine antibody; antibody injected at 100 nM alone or as 1:1 immune complex with human sclerostin
T2 sequence (looked up): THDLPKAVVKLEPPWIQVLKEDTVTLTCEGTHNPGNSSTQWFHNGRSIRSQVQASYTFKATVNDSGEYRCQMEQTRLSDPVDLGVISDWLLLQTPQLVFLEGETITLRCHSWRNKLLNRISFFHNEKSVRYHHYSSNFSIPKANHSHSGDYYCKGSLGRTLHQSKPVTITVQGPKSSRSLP
Protocol: The binding of anti-sclerostin antibodies/sclerostin immune complex towards mouse Fc gamma RIIB at pH 7.4 were determined at 25 degrees C. using Biacore T200 instrument (GE Healthcare). All antibodies and mouse Fc gamma RIIB were prepared in ACES pH 7.4 containing 20 mM ACES, 250 mM NaCl, 1.2 mM CaCl₂, 0.05% Tween 20, 1 mg/ml BSA, 1 mg/ml carboxymethyl dextran (CMD), 0.005% NaN₃. Anti-Histidine antibody (GE Healthcare) was immobilized onto all flow cells of a CM4 sensor chip using amine coupling kit (GE Healthcare). Mouse Fc gamma RIIB was captured on flow cell 2 by anti-Histidine antibody with flow cell 1 as reference flow cell. Mouse Fc gamma RIIB capture levels were aimed at 400 resonance unit (RU). All antibodies were injected at 100 nM over all flow cells. Immune complexes were prepared by mixing 1:1 molar ratio of antibody and human sclerostin and incubated at room temperature for one hour. Sensor surface was regenerated each cycle with 10 mM Glycine-HCl, pH1.5.

[2] = biological target: T3, Recombinant human sclerostin (human, UniProt Q9BQB4 24-213); experiment: SPR; captured antibody (SG1/SK1 constant regions), recombinant human SOST as analyte; response normalised by the capture level of the antibody [panel mabBL]
T3 construct: Whole entry as named; Secreted recombinant protein purified from FreeStyle293-F conditioned medium; also called human-SOST; Human SOST
T3 sequence: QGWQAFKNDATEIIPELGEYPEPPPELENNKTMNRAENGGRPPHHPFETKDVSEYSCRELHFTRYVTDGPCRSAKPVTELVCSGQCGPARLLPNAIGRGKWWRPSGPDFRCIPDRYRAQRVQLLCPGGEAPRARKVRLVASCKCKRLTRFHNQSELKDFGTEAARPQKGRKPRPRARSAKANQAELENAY

[3] = biological target: T1, Recombinant mouse sclerostin; experiment: SPR (Biacore T200), 37 C, antibody captured by anti-human Fc, sclerostin as analyte, pH 5.8; pH 5.8
Protocol: (§1) The affinity of anti-sclerostin variants binding to human, cynomolgus monkey (cyno), rat, or mouse sclerostin at pH 7.4 and pH 5.8 were determined at 37 degrees C. using Biacore T200 instrument (GE Healthcare). Anti-human Fc (GE Healthcare) was immobilized onto all flow cells of a CM4 sensor chip using amine coupling kit (GE Healthcare). All antibodies and analytes were prepared in ACES pH7.4 or pH 5.8 buffer containing 20 mM ACES, 150 mM NaCl, 1.2 mM CaCl₂, 0.05% Tween 20, 0.005% NaN₃. Each antibody was captured onto the sensor surface by anti-human Fc. […] Sensor surface was regenerated each cycle with 3M MgCl₂.

[4] = biological target: T3, Recombinant human sclerostin; experiment: SPR (Biacore T200), 37 C, antibody captured by anti-human Fc, sclerostin as analyte, pH 7.4
Protocol: as §1

[5] = biological target: T3, Recombinant human sclerostin; experiment: SPR (Biacore T200), 37 C, dissociation at pH 5.8 of complex formed at pH 7.4
Protocol: as §1
(§2) The pH dependent interaction assessment was determined by a modified Biacore assay. Briefly, an additional dissociation phase at pH5.8 was integrated into the Biacore assay immediately after dissociation phase at pH7.4. This is to assess the pH-dependent dissociation between antibody and antigen from the complexes formed at pH7.4. The dissociation rate at pH5.8 buffer was determined by processing and fitting data using Scrubber 2.0 (BioLogic Software) curve fitting software.

[6] = biological target: T4, Recombinant cynomolgus monkey sclerostin (cynomolgus monkey, UniProt Q9BG78 24-213 (Chlorocebus aethiops entry)); experiment: as above
T4 construct: Whole entry as named; expressed and purified as the human counterpart; also called cyno-SOST; cyno SOST
T4 chain: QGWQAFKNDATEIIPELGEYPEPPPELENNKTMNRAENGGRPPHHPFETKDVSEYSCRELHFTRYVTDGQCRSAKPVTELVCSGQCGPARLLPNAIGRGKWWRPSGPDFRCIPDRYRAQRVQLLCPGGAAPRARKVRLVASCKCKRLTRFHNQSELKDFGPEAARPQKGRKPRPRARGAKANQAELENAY
Protocol: as §1, §2

[7] = biological target: T1, Recombinant mouse sclerostin; experiment: SPR (Biacore T200), 37 C, antibody captured by anti-human Fc, sclerostin as analyte, pH 7.4; pH 7.4
Protocol: as §1

[8] = biological target: T4, Recombinant cynomolgus monkey sclerostin; experiment: SPR (Biacore T200), 37 C, antibody captured by anti-human Fc, sclerostin as analyte, pH 5.8
Protocol: as §1

[9] = biological target: T4, Recombinant cynomolgus monkey sclerostin; experiment: SPR (Biacore T200), 37 C, antibody captured by anti-human Fc, sclerostin as analyte, pH 7.4
Protocol: as §1

[10] = biological target: T3, Recombinant human sclerostin; experiment: SPR (Biacore T200), 37 C, antibody captured by anti-human Fc, sclerostin as analyte, pH 5.8
Protocol: as §1

[11] = biological target: T4, Recombinant cynomolgus monkey sclerostin; experiment: SPR (Biacore), dissociation at pH 7.4
Protocol: as §1

[12] = biological target: T1, Recombinant mouse sclerostin; experiment: SPR (Biacore T200), 37 C, dissociation at pH 5.8 of complex formed at pH 7.4
Protocol: as §1, §2

[13] = biological target: T5, Recombinant rat sclerostin (rat, UniProt Q99P67 29-213); experiment: as above
T5 construct: Whole entry as named; also called rat-SOST
T5 sequence: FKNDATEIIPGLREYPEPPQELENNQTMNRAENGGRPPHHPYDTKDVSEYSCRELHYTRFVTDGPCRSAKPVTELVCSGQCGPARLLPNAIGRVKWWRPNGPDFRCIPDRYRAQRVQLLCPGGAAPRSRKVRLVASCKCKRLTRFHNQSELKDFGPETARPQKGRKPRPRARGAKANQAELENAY
Protocol: as §1, §2

[14] = biological target: T5, Recombinant rat sclerostin; experiment: SPR (Biacore T200), 37 C, antibody captured by anti-human Fc, sclerostin as analyte, pH 5.8
Protocol: as §1

[15] = biological target: T3, Recombinant human sclerostin; experiment: SPR; captured antibody (SG1/SK1 constant regions), recombinant human SOST as analyte; response normalised by the capture level of the antibody [panel mabAL]
[16] = biological target: T3, Recombinant human sclerostin; experiment: SPR (Biacore), dissociation at pH 7.4
Protocol: as §1

[17] = biological target: T1, Recombinant mouse sclerostin; experiment: SPR (Biacore T200), 37 C, antibody captured by anti-human Fc, sclerostin as analyte, pH 5.8
Protocol: as §1

B1: mabB//mabA-BS01 (bispecific antibody, human IgG1, kappa)
heavy 1: QVQLVQSGAEVKKPGASVKVSCKVSGFPIKDTFQHWVRQAPGKGLEWMGWSDPEIGDTEYASKFQGRVTMTEDTSTDTAYMELSSLRSEDTAVYYCATGDTTYKFDFWGQGTTVTVSSASTKGPSVFPLAPSSRSTSESTAALGCLVKDYFPEPVTVSWNSGALTSGVHTFPAVLQSSGLYSLSSVVTVPSSSLGTKTYTCNVDHKPSNTKVDKRVEPKSCDKTHTCPPCPAPELLGGPSVFLFPPKPKDTLMISRTPEVTCVVVDVSQEDPEVQFNWYVDGVEVHNAKTKPREEQFNSTYRVVSVLTVLHQDWLNGKEYKCKVSNKGLPSSIEKTISKAKGQPREPQVYTLPPSREEMTKNQVSLTCLVKGFYPSDIAVEWESNGQPENNYKTTPPYLDSDGSFFLYSKLTVDKSRWQQGNVFSCSVMHEALHNHYTQESLSLSP
light 1: DIQMTQSPSSLSASVGDRVTITCKASQDVHTAVAWYQQKPGKAPKLLIYWASTRWTGVPSRFSGSGSGTDFTLTISSLQPEDFATYYCQQYSDYPWTFGGGTKVEIKRTVAAPSVFIFPPSDEQLKSGTASVVCLLNNFYPREAKVQWKVDNALQSGNSQESVTEQDSKDSTYSLSSTLTLSKADYEKHKVYACEVTHQGLSSPVTKSFNRGEC
heavy 2: EVQLVQSGAEVKKPGASVKVSCKASGYTFTDYNMHWVRQAPGQGLEWMGEINPNSGGAGYNQKFKGRVTMTTDTSTSTAYMELRSLRSDDTAVYYCARLGYDDIYDDWYFDVWGQGTTVTVSSASTKGPSVFPLAPSSRSTSESTAALGCLVKDYFPEPVTVSWNSGALTSGVHTFPAVLQSSGLYSLSSVVTVPSSSLGTKTYTCNVDHKPSNTKVDKRVEPKSCDKTHTCPPCPAPELLGGPSVFLFPPKPKDTLMISRTPEVTCVVVDVSQEDPEVQFNWYVDGVEVHNAKTKPREEQFNSTYRVVSVLTVLHQDWLNGKEYKCKVSNKGLPSSIEKTISKAKGQPREPQVYTLPPSRKEMTKNQVSLTCLVKGFYPSDIAVEWESNGQPENNYKTTPPYLDSDGSFFLYSKLTVDKSRWQQGNVFSCSVMHEALHNHYTQKSLSLSP
light 2: not shown
IC50 (read off the curve); Wnt1-induced TCF/LEF luciferase reporter in HEK293T cells, % Inhibition of mouse SOST [1]: ~7 µg/mL
binding result (Mouse Fc gamma RIIB): binds

B2: mabA heavy chain combined with the mabB light chain (mabBL) (antibody, human IgG1, kappa, V domains shown)
VH: EVQLVQSGAEVKKPGASVKVSCKASGYTFTDYNMHWVRQAPGQGLEWMGEINPNSGGAGYNQKFKGRVTMTTDTSTSTAYMELRSLRSDDTAVYYCARLGYDDIYDDWYFDVWGQGTTVTVSS
VL: DIQMTQSPSSLSASVGDRVTITCKASQDVHTAVAWYQQKPGKAPKLLIYWASTRWTGVPSRFSGSGSGTDFTLTISSLQPEDFATYYCQQYSDYPWTFGGGTKVEIKR
notes: also called mabBL with the mabA heavy chain; Light chain B with the mabA heavy chain
binding result [2]: no binding

B3: mabA (antibody, V domains shown)
VH: EVQLVQSGAEVKKPGASVKVSCKASGYTFTDYNMHWVRQAPGQGLEWMGEINPNSGGAGYNQKFKGRVTMTTDTSTSTAYMELRSLRSDDTAVYYCARLGYDDIYDDWYFDVWGQGTTVTVSS
VL: DIQMTQSPSSLSASVGDRVTITCRASQDISNYLNWYQQKPGKAPKLLIYYTSRLLSGVPSRFSGSGSGTDFTLTISSLQPEDFATYYCQQGDTLPYTFGGGTKVEIK
Kd [3]: < 0.01 nM
Kd [4]: 0.08 nM
koff [5]: 0.00631 s⁻¹
koff [6]: 0.00697 s⁻¹
Kd [7]: < 0.01 nM
Kd [8]: 1.4 nM

B4: mabA_NpH2 (antibody, V domains shown)
VH: EVQLVQSGAEVKKPGASVKVSCKASGYTFTDYNMHWVRQAPGQGLEWMGEINPNSGGAGYNQKFKGRVTMTTDTSTSTAYMELRSLRSDDTAVYYCARLGYDDIYDDWYFDVWGQGTTVTVSS
VL: DIQMTQSPSSLSASVGDRVTITCRASQDISNYLNWYQQKPGKAPKLLIYHTSRLLSGVPSRFSGSGSGTDFTLTISSLQPEDFATYYCQQGDTLPYTFGGGTKVEIK
Kd [9]: 0.28 nM
koff [5]: 0.0023 s⁻¹
koff [6]: 0.0018 s⁻¹
Kd [10]: 0.69 nM

B5: amH852/abL152 (antibody, V domains shown)
VH: EVQLVQSGAEVKKPGASVKVSCKASGYTFTDYNMHWVRQAPGKGLEWMGEIMPHSGRYGLKQKFKGRVTMTTDTSTSTAYMELRSLRSDDTAVYYCARLEYSEIYDDWYFDVWGQGTTVTVSS
VL: DIQMTQSPSSLSASVGDRVTITCRASEGIHDALAWYQQKPGKAPKLLIYWASTLESGVPSRFSGSGSGTDFTLTISSLQPEDFATYYCQQGDTLPYTFGGGTKVEIK
notes: Homodimeric antibody
koff [11]: 0.0019 s⁻¹

B6: mabA_pH1 (antibody, V domains shown)
VH: EVQLVQSGAEVKKPGASVKVSCKASGYTFTDYNMHWVRQAPGQGLEWMGEINPNSGHAGYNQKFKGRVTMTTDTSTSTAYMELRSLRSDDTAVYYCARLHYDDIYDDWYFDVWGQGTTVTVSS
VL: DIQMTQSPSSLSASVGDRVTITCRASHDISNYLNWYQQKPGKAPKLLIYYTSRLLSGVPSRFSGSGSGTDFTLTISSLQPEDFATYYCQQGDTLPYTFGGGTKVEIK
koff [12]: 0.0107 s⁻¹
koff [13]: 0.0059 s⁻¹
Kd [14]: 4.2 nM

B7: mabB heavy chain combined with the mabA light chain (mabAL) (antibody, human IgG1, kappa, V domains shown)
VH: QVQLVQSGAEVKKPGASVKVSCKVSGFPIKDTFQHWVRQAPGKGLEWMGWSDPEIGDTEYASKFQGRVTMTEDTSTDTAYMELSSLRSEDTAVYYCATGDTTYKFDFWGQGTTVTVSS
VL: DIQMTQSPSSLSASVGDRVTITCRASQDISNYLNWYQQKPGKAPKLLIYYTSRLLSGVPSRFSGSGSGTDFTLTISSLQPEDFATYYCQQGDTLPYTFGGGTKVEIKR
notes: also called mabAL with the mabB heavy chain; Light chain A with the mabB heavy chain
binding result [15]: no binding

B8: bsH638/abL152 (antibody, V domains shown)
VH: QVQLVQSGAEVKKPGASVKVSCKVSGYTLTHTFMHWVRQAPGKGLEWMGWSDPEIGDHEYASKFQGRVTMTEDTSTDTAYMELSSLRSEDTAVYYCATGDTTYKFDYWGQGTLVTVSS
VL: DIQMTQSPSSLSASVGDRVTITCRASEGIHDALAWYQQKPGKAPKLLIYWASTLESGVPSRFSGSGSGTDFTLTISSLQPEDFATYYCQQGDTLPYTFGGGTKVEIK
notes: Homodimeric antibody
koff [16]: 0.0093 s⁻¹

B9: mabB (antibody, V domains shown)
VH: QVQLVQSGAEVKKPGASVKVSCKVSGFPIKDTFQHWVRQAPGKGLEWMGWSDPEIGDTEYASKFQGRVTMTEDTSTDTAYMELSSLRSEDTAVYYCATGDTTYKFDFWGQGTTVTVSS
VL: DIQMTQSPSSLSASVGDRVTITCKASQDVHTAVAWYQQKPGKAPKLLIYWASTRWTGVPSRFSGSGSGTDFTLTISSLQPEDFATYYCQQYSDYPWTFGGGTKVEIK
koff [12]: 0.00265 s⁻¹
Kd [17]: 0.26 nM
